Test results as given in US20250326814A1, “MODIFIED OXYNTOMODULIN AND METHODS OF USE THEREOF” (OPKO BIOLOGICS LTD., priority 2024, published 2025).

Tests used:
[1] = target: glucagon-like peptide-1 receptor (GLP-1R); assay: cell-based or functional assay
glucagon receptor (GCGR) = assay: cell-based or functional assay

% EC50 compare to KPI (GLP1), with HSA added (KPI + HSA) [1]	EC50 (nM) GLP-1R, GLP-1 activity in vitro [1]	EC50 (nM), GLP-1 activity [1]	EC50 [nM] GLP1, CBA potency assay [1]	EC50 [nM] GLP1, CBA potency assay, with HSA added (KPI + HSA) [1]	EC50 [nM] GLP1, CBA potency assay, without HSA [1]	% EC50 compare to KPI (GCGR), with HSA added (KPI + HSA) (glucagon receptor (GCGR))	EC50 (nM) GCGR, glucagon activity in vitro (glucagon receptor (GCGR))	EC50 [nM] GCGR, CBA potency assay (glucagon receptor (GCGR))	EC50 [nM] GCGR, CBA potency assay, with HSA added (KPI + HSA) (glucagon receptor (GCGR))	EC50 [nM] GCGR, CBA potency assay, without HSA (glucagon receptor (GCGR))	Substance
107%	0.0168 nM	0.105 nM	0.127 nM	0.187 nM	0.201 nM	129%	0.0731 nM	0.6 nM	1.06 nM	1.37 nM	OPK-88003 KPI (SEQ ID NO: 3 where Xaa38=Cys and Xaa39=Cys) (peptide)
		0.9 nM									Tirzepatide (Mounjaro, Zepbound) (peptide)
